{"source": "patent US20220315967A1", "about": "“METHODS FOR PRODUCING D-TRYPTOPHAN AND SUBSTITUTED D-TRYPTOPHANS” (priority 2019, published 2022)", "proteins": {"B1": {"name": "standalone IvoA-C (condensation (C) domain of Aspergillus nidulans single-module NRPS IvoA) (protein)", "chain": "DLDLSAKLSSPLVCPADVVRSLEVNGVCIERDVEIVYTPSSIQQHMLWRQSQEPWFYRVQGDWTIEKTTTQSEPVDIDRLSHAWNQVVHRHTTLRTVFRYSSEEERFVAIVLHEVKPAISIIRKGIQTSGSLCRDDDLSPPHRMVLREKDNGSVVCELEFSHTIIDAASRSIVVQDLLDAYDGKLAHRPLDFPPFWEYIRLAQSSTPSARKEELHRAGRVVTLPFQPTHVLSKVPEACKKNEITISSFFMTAWSIVLAKHFVAHNQRVDSTSSQAVAFDYVLSDRSANIPGIESAVGPYIRLPTLETHVKEGVSLKNIARGLHAQCTFQSLSQSTQDGSSLELPSKATALQKYSTLVNIRNSGSDSLDLVSDSGEWKWILQGFSDPWDYDLVFAVNVHAGKVTGWTVEYADGVVEHSAADEIAKDLNDVVERMVCEII"}}, "biological_target": "T1, IvoA-ΔC truncation mutant", "T1 chain": "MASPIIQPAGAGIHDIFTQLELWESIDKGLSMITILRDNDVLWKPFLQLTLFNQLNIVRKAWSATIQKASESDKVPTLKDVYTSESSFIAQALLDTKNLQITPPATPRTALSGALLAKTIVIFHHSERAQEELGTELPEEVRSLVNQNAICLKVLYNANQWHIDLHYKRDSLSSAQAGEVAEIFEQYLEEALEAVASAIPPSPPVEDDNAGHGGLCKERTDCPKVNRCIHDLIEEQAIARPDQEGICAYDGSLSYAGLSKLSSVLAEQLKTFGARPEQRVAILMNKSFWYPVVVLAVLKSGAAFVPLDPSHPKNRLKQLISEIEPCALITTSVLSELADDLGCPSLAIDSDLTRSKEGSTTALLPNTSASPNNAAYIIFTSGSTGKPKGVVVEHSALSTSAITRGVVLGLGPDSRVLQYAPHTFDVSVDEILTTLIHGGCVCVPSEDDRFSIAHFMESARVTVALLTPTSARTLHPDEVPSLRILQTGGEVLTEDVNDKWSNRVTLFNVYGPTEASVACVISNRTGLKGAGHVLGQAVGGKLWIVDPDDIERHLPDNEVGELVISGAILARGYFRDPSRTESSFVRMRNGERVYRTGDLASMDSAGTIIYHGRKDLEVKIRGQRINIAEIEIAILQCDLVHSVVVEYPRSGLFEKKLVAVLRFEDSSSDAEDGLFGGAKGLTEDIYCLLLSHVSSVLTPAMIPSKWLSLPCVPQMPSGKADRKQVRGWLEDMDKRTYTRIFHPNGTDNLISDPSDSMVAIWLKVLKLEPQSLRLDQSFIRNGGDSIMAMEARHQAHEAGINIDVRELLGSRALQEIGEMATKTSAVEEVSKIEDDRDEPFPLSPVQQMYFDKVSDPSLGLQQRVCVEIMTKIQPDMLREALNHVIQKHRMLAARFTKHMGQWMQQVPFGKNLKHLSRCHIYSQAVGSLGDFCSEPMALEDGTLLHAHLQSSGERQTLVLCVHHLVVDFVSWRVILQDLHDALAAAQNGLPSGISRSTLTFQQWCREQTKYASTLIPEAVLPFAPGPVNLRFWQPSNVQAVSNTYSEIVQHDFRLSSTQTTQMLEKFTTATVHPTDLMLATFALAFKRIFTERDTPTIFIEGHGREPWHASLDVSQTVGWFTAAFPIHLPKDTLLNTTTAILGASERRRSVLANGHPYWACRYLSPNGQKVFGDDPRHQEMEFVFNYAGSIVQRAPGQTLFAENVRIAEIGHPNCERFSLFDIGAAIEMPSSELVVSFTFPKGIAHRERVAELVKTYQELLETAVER"}
{"protein": "B1", "values": [{"measurement": "stereoinversion activity (complementation in trans)", "result": "Addition of IvoA-C in equimolar to either IvoA(C^0) mutant or IvoA-ΔC truncation mutant successfully rescued the impaired stereoinversion activity"}]}
